Earlier results on one substance are cited in paper PMC2744096.

pKd: −log10 of the molar value.

The target of this series is MLL (Homo sapiens) (UniProt Q03164).

In general, pKd refers to −log10 of the Kd, conventionally taken in molar units. With CBP KIX (from UniProt Q92793), the negative logarithm of the Kd (pKd) was 5.52.
